This data set in a line: yeast display, Sf9 membrane polyspecificity reagent, FACS + sequencing; frameworks hold sequencing errors. The procedure, abridged:
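A nanobody's polyreactivity label depends on the gate it was sorted from. Yeast display cells were stained with 10% biotinylated, detergent-solubilized Sf9 membrane reagent for 1 hour at 4 °C, enriched on streptavidin microbeads and sorted by FACS. The low and high (top ~1%) gates were set on anti-HA fluorescence for expression and streptavidin fluorescence for reagent binding.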
Consider “QVQLVETGGGLVQAGGSLRLSCAASGPTFYANAKGWYRQAPGKERELVAVISWGSGSTYYADSVKGRFTISRDNAKNTVYLQMNSLKPEDTAVYYCAKSFYYEGTGDYWGQGTQVTVSS”, for which the “polyreactivity (PSR sort gate)” value is listed as “low polyreactivity”.

Take “QVQLVETGGGLVQAGGSLRLSCAASGRIFGSYAMGWYRQAPGKERELVASIRSGGRTKYADSVKGRFTISRDNAKNTVYFQMNSLKPEDTAVYYCAVPIEWDYGYWGQGTQVTVSS”: the “polyreactivity (PSR sort gate)” value is “low polyreactivity”.

Regarding “QVQLVETGGGLVQAGGSLRLSCAASGRIFHLYAMGWYRQAPGKERELVAAITFSGGSTYYADSVKGRFTISRDTAKNTVYLQMNSLKPEDTAVYYCAKRSFYWFSSRLPFKYDYWGQGTQVTVSS”, the “polyreactivity (PSR sort gate)” value is listed as “low polyreactivity”.

Regarding “QVQLVETGGGLVQAGGSLRLSCAASGRNYTYTMGWYRQAPGKERELVAAITYSGGSTYYADSVKGRFTISRDNAKNTVYLQMNSLKPEDTAVYYCAAVGRWPRYYYWGQGTQVTVSS”, the “polyreactivity (PSR sort gate)” value is “high polyreactivity”.

For “QVQLVETGGGLVQAGGSLRLSCAASGRPFHRYALGWYRQAPGKDRALGAAISRGGITYYADSVKGRFTISRDNAKNTVYLQMNSLKPEDTAVYYCAALYRYYHESSPFDYWGQGTQVTVSS”, the “polyreactivity (PSR sort gate)” value is on record as “high polyreactivity”.

Consider “QVQLVETGGGLVQAGGSLRLSCAASGRTFDPNAMGWYRQAPGKERELVAAIDWTGGRTYYADSVKGRFTISRDNAKNTVYLQMNSLKPEDTAVYYCAARYYRFRSSRDYWGQGTQVTVSS”, for which the “polyreactivity (PSR sort gate)” value was “high polyreactivity”.

For “QVQLVETGGGLVQAGGSLRLSCAASGRTFEGNAMGWYRQAPGKERELVAAISGSGGRTYYADSVKGRFTISRDNAKYTVYLQMNSLKPEDTAVYYETLYSVYNPRRFNYWGQGTQVTVSS”, the “polyreactivity (PSR sort gate)” value is “high polyreactivity”.

As for “QVQLVETGGGLVQAGGSLRLSCAASGRTFGIYAMGWYRQAPGKERELVAANTGRGGSTHYADSVKGRFTISRDNAKNTVYLQMNSLKPEDTEVYYGAADYRYNRGITSNKDYDYWGQGTQVTVSS”, the “polyreactivity (PSR sort gate)” value was “low polyreactivity”.

For “QVQLVETGGGLVQAGGSLRLSCAASGRTFVYNGMGWYRQAPGKERELVAAISGSGGSTYYADSVKGRFTISRDNAKNTVYLQMNSLKPEDTAVYYCATRQGYRLYYWGQGTQVTVSS”, the “polyreactivity (PSR sort gate)” value is reported as “high polyreactivity”.

As for “QVQLVETGGGLVQAGGSLRLSCAASGRTLWSYVMGWYIQAPGKERELVAAITSGGTTYYADSVKGRFTISRDNAKNTFYFQMNSLKPEDTAVYSCNVYTKFVYAYDYWGQGTQVTVSS”, the “polyreactivity (PSR sort gate)” value is listed as “high polyreactivity”.

For “QVQLVETGGGLVQAGGSLRLSCAASGSIFFDYAKGWSRQAPGKERELVAAIRWSGGRTSYADSVKGRFTISRDNAKNSVYLQMNSVKPEDTAVYYCSARWNRVRYGFDYWGQGTQVTVSS”, the “polyreactivity (PSR sort gate)” value is listed as “high polyreactivity”.

As to “QVQLVETGGGLVQAGGSLRLSCAASGSIFLYYAMGWYRQAHGKERELVAAITSGGSTNYADSVKGRFTISRDNAKNTVYLQMNSLKPEDTAVYYCAARHPYRFWGQGTKVTVSS”, the “polyreactivity (PSR sort gate)” value was “high polyreactivity”.

“QVQLVETGGGLVQAGGSLRLSCAASGSIFVTNAMGWYRQPPGKEREFVAAISSSDDSTYYADSVKGRFTISRDNAKNTVYLQMHSLKPEDTAVYYCASDWLFNIIAYDYGLDSWGQGTQVTVSS”: the “polyreactivity (PSR sort gate)” value was “low polyreactivity”.

Regarding “QVQLVETGGGLVQAGGSLRLSCAASGSTFRYYAMGWYRQAPGTERELVAGISSNGGRTYYADSVKWRFTISRDNAKNTVYLQMNILKPEDTAVYYCNAGPYSRLYGDRDYDYWGQGTQVTVSS”, the “polyreactivity (PSR sort gate)” value is listed as “high polyreactivity”.

With “QVQLVETGGGLVQAGGSLRLSCAASGSTFVYNAMGWYRPAPGNERELVAAITNSGSTYYADSVKGRFTISRDNAKNTVYLQMNSLKPEDTAVYDCAARSRVYWARSGYWGQGTQVTVSS”, the “polyreactivity (PSR sort gate)” value is reported as “low polyreactivity”.

In the case of “QVQLVETGGGLVQAGGSLRLSCAASGSTFYYNAMGWYRQAPGKERELVARITRSGGSTYADSVKGRFTISRDNAKNSVYLQMNSLKPEVTAVYYWNADAYGTPEFTSYALRYDYWGQGTQVTVSS”, the “polyreactivity (PSR sort gate)” value is given as “low polyreactivity”.

As for “QVQLVETGGGLVQAGGSLRLSCAASGYTFASNDMVWYRQAPGKERELVAAITKGGGRTYYADSVKGRFTISRDNAKNTVYLQMNRLKPEDTAVYFCAARQLIKYDYCGQGTQVTVSS”, the “polyreactivity (PSR sort gate)” value was “low polyreactivity”.

Consider “QVQLVETGGGLVQAGGSLRLSCAASVRIIWGNAMGWYRQAPGTERELVAALRASGGSTHYADSVKGRFTISRDNAKKTVYFQINSLKPEDTAVYYCIAVKRVGAYWGRSFAYYYWGQGTQVTVSS”, for which the “polyreactivity (PSR sort gate)” value is listed as “high polyreactivity”.

“QVQLVETGGGLVQAGGSLRLSCAAYGSIFIGYAMGWYRQAPGKERELVAAISNSGGRTYYADSVKGRFTISRDNAKNTVYLQMNSLKPEDTEVYYCNVDYRIPYRMDYWGQGTQVTVSS”: the “polyreactivity (PSR sort gate)” value is recorded as “high polyreactivity”.

“QVQLVETGGGLVQAGGSLRLSCADSGFIFRYYAMGRYRQAPGKERELVAAISSRGASTYYADSVKGRFTISRDNEKNTVYLQMNRLKPEDTAVYDCNARFNRASEMDYWGQGTQVTVSS”: the “polyreactivity (PSR sort gate)” value is reported as “high polyreactivity”.

On to “QVQLVETGGGLVQAGGSLRLSCAGSGSTFTSYVMGWYRQAPGKERELVAAITSSGGDTYYADSVKGRFTISRDNAKNTVYLQMNSLKPEVTAVYYCATRSYYRSSYYRNRYPYDYWGQGTQVTVSS”, for which the “polyreactivity (PSR sort gate)” value is listed as “low polyreactivity”.

With “QVQLVETGGGLVQAGGSLRLSCAPSGRTFYYYAMGWYRQAPGKERELVAAISYSVGSTYYADSVKGRFTISRDNAKTTVYLQMNSLKPEDTEVYYCAASRASSSRGEYYYWGQGTLVTVSS”, the “polyreactivity (PSR sort gate)” value is reported as “low polyreactivity”.

For “QVQLVETGGGLVQAGGSLRLSCASSGITFYRYGKGRYRQAPGKERELVAAITYNGGGTYYADSVKGRFTISRDNAKNTVYLQMNSLKPEDTAVYYCATLRPYAYPQYDSWGQGTQVTVSS”, the “polyreactivity (PSR sort gate)” value was “high polyreactivity”.

Consider “QVQLVETGGGLVQAGGSLRLSCASSGRTCVDNTMGWYRQEPGKESELVATITSGDSTNYEESVKGRFTISRDNAKYTVYLQMNSLKPEDTAVYYCAAVTNWYYYYTHRMEYWGQGTQVTVSS”, for which the “polyreactivity (PSR sort gate)” value is reported as “low polyreactivity”.

On to “QVQLVETGGGLVQAGGSLRLSCASSGSIFRAYAMGWYRQAPGNERELVAYISRSGGSTYYADSVKGRFTISRDNAKNTVYLQMNSLTQEDTAFYYCAAVFYLYSNLYGEYDYWGQGTQVTVSS”, for which the “polyreactivity (PSR sort gate)” value is reported as “low polyreactivity”.

With “QVQLVETGGGLVQAGGSLRLSCDASGRTFRIYGMGWYRQAPGKERELVAAISYSTGGTYYADSVKGRFTISRDNAKNTVYLQMTSLKPEDTAVYYCAAVVYAYLYADYDYWGQGTQVTVSS”, the “polyreactivity (PSR sort gate)” value is given as “low polyreactivity”.

With “QVQLVETGGGLVQAGGSLRLSFGASGSTFSQYGMGLYRQAPGKVRELVAAIRRSGGRTYYADSVKGRFTISLDNAKNTVYLQMNSLKPEDTAVYYCAADEYRYYFYRPGIGYDYWGQGTQVTVSS”, the “polyreactivity (PSR sort gate)” value is given as “low polyreactivity”.

“QVQLVETGGGLVQAGGSLRLSSAASGITFKWNDMGCYRQAPGKEREFVAAITGSTGSTFYADSVKGRFTISRDNAKNTVYLQMNSLKPEDTAVYYCAAGPWFYYWGQGTEVTVSS”: the “polyreactivity (PSR sort gate)” value is on record as “low polyreactivity”.

For “QVQLVETGGGLVQAGGSLRLSSAASGRIFRNYTMGWYRQAPGKERELVAAISSSGGRTYYADSVKGRFTISRDNEKNTVYLQMNSLKPEDTAVYYCNTDGPTWYPTYDYWGQGTQVTVSS”, the “polyreactivity (PSR sort gate)” value is “high polyreactivity”.

Take “QVQLVETGGGLVQARGSLRLSCAASVSILYGNAMGWYRQAPGKERELVAAISRGGSTYYADSVKGRFTISRDNAKNTVYLQMNSLKPEDTAVYYCNALYTSYYRPSGMGYWGQGTQVTVSS”: the “polyreactivity (PSR sort gate)” value is recorded as “high polyreactivity”.

For “QVQLVETGGGLVQSGGSLRLSCAASGSTFTYYAMGWYRQAPGKERELVAAIDFSGTSTYYADSVKGRFTISRDNAKNTVYLQMNCLKPEDTAVYFCAASQSLYWGGAHDNGEFGYWGQGTQVTVSS”, the “polyreactivity (PSR sort gate)” value is listed as “low polyreactivity”.

“QVQLVETGGLLVQAGGSLRLTCAGSGLIFYYYAMGCYRQAPGKERELVATISWYGGSTYADSVKGRFTISRDNAKNTVYLQMNSLKPEDPAVYYCAARYFVYYLEVDYWGQGTQVTVSS”: the “polyreactivity (PSR sort gate)” value is recorded as “low polyreactivity”.

As to “QVQLVETGGRLVQAGGSLRLSCAASGFTFHQYTMGWYRQAPGKESELVAAITGTGDTYYADSVKGRFTISRDNAKNTVNLQMNSLKPEDTAVYYCAADWVTYWYYKGFYYWGQGTQVTVSS”, the “polyreactivity (PSR sort gate)” value was “high polyreactivity”.

Consider “QVQLVETGGVLVQAGGSLRLSCAASGRIFFYYVMGWYRQAPGKERELVAGITRGGITNYADSVKGRLTISRDNAKNTVYLQMNSLKPEDTAVYYCKARAPSYYRYRASAAYDYWGLGTQVTVSS”, for which the “polyreactivity (PSR sort gate)” value was “high polyreactivity”.

In the case of “QVQLVETGRGLFHAGGSLRLSCAASGGIFRVYAMGWYIPAPGKERELVAAISRSGSSTYYADSVKGRFTISRDNAKNTVYLQMNSLKPEDTAVYYCNAYSQYWLGNNYWGQGTQVTVSS”, the “polyreactivity (PSR sort gate)” value is on record as “high polyreactivity”.

On to “QVQLVETGRGLVQAGGSLRLSCAASGSTFGSYAMGWYRPAPGKEREFVATISRSGGRTYYAASVKGRFTISRDNAKNTVYFQMNSLKPEDTAVYYCATDRRYWIGYDYWGQGTQVTVSS”, for which the “polyreactivity (PSR sort gate)” value is on record as “high polyreactivity”.

With “QVQLVETGVGLVQAGGSLRLSCAASGRIFKRNTMGWYRQAPGKEREFVASITFSGGSTNYADSVKGRFTISRDNAKNTVYLQMNSLKPEDTAVYYCAARDYHYSTYDYWGQGTQVTVSS”, the “polyreactivity (PSR sort gate)” value was “low polyreactivity”.

Turning to “QVQLVETGVGLVQAGGSLRLSCAASGRTFTTYAMGWYRQAPGKERELVAAITGSGGSTYYADSVNGRFTISRDNAKNTVYLQMNSLKPEDTAVYDCAKGYHQYAGFYYWGQGTQVTVSS”, the “polyreactivity (PSR sort gate)” value was “high polyreactivity”.

For “QVQLVETRGGLVQAGGSLRLSCAASGPIIRYYDMGCYRQAPGTERELVSASNAAGTSTYYADSVKGRFTISRDNAKNTVYLQMNSLKPEDTAVYYCAAQPYYGGGCYCYTRNYKLNYWGQGTQVTVSS”, the “polyreactivity (PSR sort gate)” value is listed as “high polyreactivity”.

Regarding “QVQLVEYVELLVQAVGILSLSCAASGLTIYYYIMGWYLHAPRKEREFLAAISNSGCRPYYADSVNGRFTISRDNAKNTDYLQMNSLIPEDTPVYYCAAQSRYGGKFLYWGQGTQVTVSS”, the “polyreactivity (PSR sort gate)” value is on record as “high polyreactivity”.

As to “QVQLVGSGGGLVQAGGSLRLSCAASGRIFDKNAMGWYRQAPGKERELVAAISGGGRTYYADSVKGRFTISRDNAKNTVYLQMNSLKQEDTAVYYCNVPYYYTGGSYGYWGQGTQVTVSS”, the “polyreactivity (PSR sort gate)” value is listed as “low polyreactivity”.

The values are drawn from the nanobody polyreactivity screen of Harvey et al. (2022).
